According to PMC11480844 (2024):

B1: H2-Kb / Ed21 (parent complex)
chain 1: AQSVTQPDARVTVSEGASLQLRCKYSYFGTPYLFWYVQYPRQGLQLLLKYYPGDPVVQGVNGFEAEFSKSNSSFHLRKASVHWSDWAVYFCAVSMSGGYKVVFGSGTRLLVSP
chain 2: DSGVVQSPRHIIKEKGGRSVLTCIPISGHSNVVWYQQTLGKELKFLIQHYEKVERDKGFLPSRFSVQQFDDYHSEMNMSALELEDSAMYFCASSPRQTDYTFGSGTRLLVI
chain 3: not shown
chain 4: IQKTPQIQVYSRHPPENGKPNILNCYVTQFHPPHIEIQMLKNGKKIPKVEMSDMSFSKDWSFYILAHTEFTPTETDTYACRVKHDSMAEPKTVYWDRDM
chain 5: SIINFEKL
B2: H2-Kb / Ed5 (parent complex)
chain 1: GDSVTQTEGPVTVSESESLIINCTYSATSIAYPNLFWYVRYPGEGLQLLLKVITAGQKGSSRGFEATYNKETTSFHLQKASVQESDSAVYYCALGSYNQGKLIFGQGTKLSIKP
chain 2: DTTVKQNPRYKLARVGKPVNLICSQTMNHDTMYWYQKKPNQAPKLLLFYYDKILNREADTFEKFQSSRPNNSFCSLYIGSAGLEYSAMYLCASSRRLGASQNTLYFGAGTRLSVL
chain 3: not shown
chain 4: B1 chain 4
chain 5: SIINFEKL

Variants of: B1
Experiment: % of reporter cells activated (NFAT-GFP), raw
Further: test concentration or dose not given here.

Going from chain 5 E6Y to chain 5 E6C, the ratio to parent falls from 0.366 to 0.0832.

Compared with chain 5 E6D, chain 5 E6M is lower in ratio to parent: 0.964 for the first, 0.593 for the second.

First: chain 5 E6R
Second: chain 5 E6L
The ratio to parent of the first is higher: 0.936 for the first, 0.329 for the second.

First: chain 5 E6A
Second: chain 5 E6G
The ratio to parent of the first is higher: 0.845 for the first, 0.785 for the second.

First: chain 5 E6I
Second: chain 5 E6S
The ratio to parent of the first is lower: 0.0493 for the first, 0.641 for the second.

First: chain 5 E6W
Second: chain 5 E6N
The ratio to parent of the first is lower: 0.0831 for the first, 0.884 for the second.

Compared with chain 5 E6P, chain 5 E6T is lower in ratio to parent: 0.554 for the first, 0.46 for the second.

Going from chain 5 E6F to chain 5 E6H, the ratio to parent rises from 0.226 to 0.59.

First: chain 5 E6K
Second: chain 5 I2W
The ratio to parent of the first is higher: 0.949 for the first, 0.861 for the second.

First: chain 5 I2P
Second: chain 5 I2G
The ratio to parent of the first is lower: 0.975 for the first, 1 for the second.

First: chain 5 I2Q
Second: chain 5 I2H
The ratio to parent of the first is lower: 0.904 for the first, 0.926 for the second.

Going from chain 5 I2M to chain 5 I2L, the ratio to parent rises from 0.976 to 1.02.

First: chain 5 I2E
Second: chain 5 I2F
The ratio to parent of the first is higher: 0.964 for the first, 0.951 for the second.

First: chain 5 I2S
Second: chain 5 I2Y
The ratio to parent of the first is higher: 1.01 for the first, 0.814 for the second.

Going from chain 5 I2T to chain 5 I2K, the ratio to parent falls from 1.01 to 0.906.

Going from chain 5 I2N to chain 5 I2A, the ratio to parent rises from 1.01 to 1.04.

First: chain 5 I2R
Second: chain 5 I2C
The ratio to parent of the first is lower: 0.916 for the first, 0.995 for the second.

Going from chain 5 I2D to chain 5 N4P, the ratio to parent falls from 0.924 to 0.0248.

First: chain 5 N4C
Second: chain 5 N4M
The ratio to parent of the first is higher: 0.162 for the first, 0.00791 for the second.

Compared with chain 5 N4K, chain 5 N4H is lower in ratio to parent: 0.566 for the first, 0.47 for the second.

First: chain 5 N4E
Second: chain 5 N4A
The ratio to parent of the first is lower: 0.189 for the first, 0.498 for the second.

First: chain 5 N4G
Second: chain 5 N4Q
The ratio to parent of the first is higher: 0.182 for the first, 0.015 for the second.

Compared with chain 5 N4T, chain 5 N4R is higher in ratio to parent: 0.165 for the first, 0.476 for the second.

Compared with chain 5 N4V, chain 5 N4W is lower in ratio to parent: 0.0259 for the first, 0.017 for the second.

Compared with chain 5 N4S, chain 5 N4I is higher in ratio to parent: 0.271 for the first, 0.389 for the second.

Compared with chain 5 N4Y, chain 5 N4F is higher in ratio to parent: 0.0148 for the first, 0.0275 for the second.

Compared with chain 5 N4D, chain 5 I3D is higher in ratio to parent: 0.487 for the first, 0.575 for the second.

Compared with chain 5 I3G, chain 5 I3C is higher in ratio to parent: 0.636 for the first, 0.989 for the second.

Compared with chain 5 I3R, chain 5 I3T is higher in ratio to parent: 0.775 for the first, 0.952 for the second.

First: chain 5 I3Q
Second: chain 5 I3E
The ratio to parent of the first is lower: 0.902 for the first, 0.924 for the second.

Going from chain 5 I3Y to chain 5 I3H, the ratio to parent rises from 0.966 to 1.

Going from chain 5 I3A to chain 5 I3W, the ratio to parent falls from 0.872 to 0.869.

First: chain 5 I3M
Second: chain 5 I3F
The ratio to parent of the first is higher: 0.99 for the first, 0.869 for the second.

First: chain 5 I3P
Second: chain 5 I3K
The ratio to parent of the first is higher: 0.927 for the first, 0.851 for the second.

Going from chain 5 I3V to chain 5 I3S, the ratio to parent rises from 0.872 to 0.901.

First: chain 5 I3L
Second: chain 5 I3N
The ratio to parent of the first is higher: 1.03 for the first, 0.961 for the second.

Compared with chain 5 S1P, chain 5 S1Y is higher in ratio to parent: 0.808 for the first, 0.97 for the second.

Going from chain 5 S1H to chain 5 S1N, the ratio to parent falls from 0.979 to 0.724.

First: chain 5 S1V
Second: chain 5 S1A
The ratio to parent of the first is lower: 0.9 for the first, 1.02 for the second.

Going from chain 5 S1E to chain 5 S1F, the ratio to parent falls from 0.93 to 0.805.

Going from chain 5 S1G to chain 5 S1Q, the ratio to parent rises from 0.933 to 0.983.

First: chain 5 S1I
Second: chain 5 S1L
The ratio to parent of the first is lower: 0.745 for the first, 0.793 for the second.

Going from chain 5 S1D to chain 5 S1M, the ratio to parent rises from 0.911 to 0.954.

Compared with chain 5 S1C, chain 5 S1K is higher in ratio to parent: 0.604 for the first, 0.664 for the second.

Going from chain 5 S1W to chain 5 S1R, the ratio to parent rises from 0.616 to 0.785.

Going from chain 5 F5V to chain 5 F5R, the ratio to parent rises from 0.909 to 0.958.

Compared with chain 5 F5T, chain 5 F5P is higher in ratio to parent: 0.964 for the first, 1.03 for the second.

Going from chain 5 F5H to chain 5 F5A, the ratio to parent rises from 0.947 to 1.05.

Going from chain 5 F5M to chain 5 F5Q, the ratio to parent falls from 0.981 to 0.939.

First: chain 5 F5D
Second: chain 5 F5E
The ratio to parent of the first is higher: 0.905 for the first, 0.856 for the second.

Compared with chain 5 F5G, chain 5 F5W is lower in ratio to parent: 0.873 for the first, 0.866 for the second.

Going from chain 5 F5C to chain 5 F5L, the ratio to parent rises from 1.04 to 1.05.

Compared with chain 5 F5Y, chain 5 F5K is lower in ratio to parent: 1.05 for the first, 0.952 for the second.

First: chain 5 L8H
Second: chain 5 L8T
The ratio to parent of the first is higher: 1.03 for the first, 0.783 for the second.

Compared with chain 5 L8N, chain 5 L8A is lower in ratio to parent: 0.888 for the first, 0.819 for the second.

Going from chain 5 L8C to chain 5 L8I, the ratio to parent falls from 0.882 to 0.859.

Going from chain 5 L8S to chain 5 L8Y, the ratio to parent rises from 0.78 to 0.976.

Going from chain 5 L8W to chain 5 L8D, the ratio to parent rises from 0.734 to 0.785.

First: chain 5 L8P
Second: chain 5 L8R
The ratio to parent of the first is lower: 0.996 for the first, 0.997 for the second.

First: chain 5 L8Q
Second: chain 5 L8K
The ratio to parent of the first is lower: 0.894 for the first, 0.901 for the second.

Compared with chain 5 L8E, chain 5 L8V is higher in ratio to parent: 0.685 for the first, 0.686 for the second.

First: chain 5 L8F
Second: chain 5 L8M
The ratio to parent of the first is lower: 0.826 for the first, 0.887 for the second.

Compared with chain 5 K7F, chain 5 K7L is higher in ratio to parent: 0.261 for the first, 0.785 for the second.

Going from chain 5 K7W to chain 5 K7T, the ratio to parent rises from 0.717 to 0.752.

Compared with chain 5 K7Y, chain 5 K7G is lower in ratio to parent: 0.745 for the first, 0.605 for the second.

First: chain 5 K7M
Second: chain 5 K7R
The ratio to parent of the first is lower: 0.418 for the first, 1.02 for the second.

Compared with chain 5 K7V, chain 5 K7H is higher in ratio to parent: 0.788 for the first, 0.997 for the second.

First: chain 5 K7E
Second: chain 5 K7I
The ratio to parent of the first is lower: 0.0818 for the first, 0.799 for the second.

Going from chain 5 K7Q to chain 5 K7S, the ratio to parent rises from 0.568 to 0.785.

Going from chain 5 K7C to chain 5 K7P, the ratio to parent rises from 0.374 to 0.667.

First: chain 5 K7D
Second: chain 5 K7A
The ratio to parent of the first is lower: 0.141 for the first, 0.645 for the second.

Variants of: B2
Experiment: % of reporter cells activated (NFAT-GFP), raw

Compared with chain 5 I2M, chain 5 S1A is lower in ratio to parent: 0.917 for the first, 0.322 for the second.

Going from chain 5 N4V to chain 5 L8F, the ratio to parent rises from 0.0109 to 0.694.

First: chain 5 I3Q
Second: chain 5 F5D
The ratio to parent of the first is lower: 0.162 for the first, 0.92 for the second.

Going from chain 5 K7W to chain 5 K7Q, the ratio to parent rises from 0.543 to 0.648.
